T1: PfCSP C‐terminal linker peptide P2 (PfCSP 281–294) (Plasmodium falciparum NF54)
T1 construct: Plasmodium falciparum NF54 circumsporozoite protein (PfCSP), aa 281–294 of the C-linker; One of 14 overlapping peptides (P1-P14); also called C‐CSP peptide; source: synthetic peptide (PSL Peptide Specialty Laboratories GmbH)
T1 chain: QGHNMPNDPNRNVD

T2: PfCSP C‐linker peptide (aa 273–310) (Plasmodium falciparum NF54, UniProt P19597)
T2 construct: Plasmodium falciparum NF54 circumsporozoite protein, C-linker, aa 273–310; source: synthetic peptide (PSL Peptide Specialty Laboratories GmbH)
T2 chain: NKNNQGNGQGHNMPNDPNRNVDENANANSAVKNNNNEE

B1: mAb 3764 (recombinant human IgG1) (antibody, V domains shown)
VH: QVQLVESGGGVVQPGRSLRLSCAASGFTFSSYGMHWVRQAPGKGLEWVAVIWYDGSYKSYIESVKGRFTISRDNSKNTLYLQMNSLRVEDTAVYYCALGYSSGQGTLDNWGQGTLVTVSS
VL: DVVMTQSPLSLAVTLGQPASISCRSTQSLVYSDGNTYLNWFQQRPGQSPRRLIYKVSNRDSGVPDRFSGSESGTDFTLKISRVEAEDVGLYYCMQGTHWPWTFGQGTKVEIK
notes: heavy chain variable region of mAb 3764 (IGHV3-33); human IgG1 constant region from the IGHG1 expression vector; kappa chain variable region of mAb 3764; human Ig kappa constant region from the IGKC expression vector; IgG1; Somatic mutations H.N56Y and H.Y58S against germline are already part of the antibody; also called C‐linker specific mAb 3764; source: HEK293T, co-transfected, purified from …
B2: 3764 Fab (Fab, V domains shown)
VH: B1 VH
VL: B1 VL
notes: mAb 3764 heavy chain variable region upstream of human IgG1-CH1; mAb 3764 kappa chain variable region upstream of human IgK constant domain; also called mAb 3764 Fab; source: HEK293F, transiently co-transfected, purified (Kappa-select, MonoS cation exchange, Superdex 200 SEC)

Key:
Details in all cases: both partners purified
[1] = biological target: T3, full‐length PfCSP (FL‐CSP), NF54 (Plasmodium falciparum NF54); experiment: ELISA; antigen coated on 384-well plates overnight at 4°C in PBS (full-length PfCSP 0.4 μg/ml, C-CSP 1 μg/ml, peptides 2 μg/ml); mAb from 4 μg/ml in PBS, RT 1.5 h; detected with anti-human IgG-HRP; AUC
T3 construct: Plasmodium falciparum NF54 circumsporozoite protein, called full-length; source: FL-CSP expressed in E. coli by the EMBL core facility; a biotinylated NF54 FL-CSP was expressed in HEK293F and purified (HisTrap HP, SEC)

[2] = biological target: T1, PfCSP C‐terminal linker peptide P2 …; experiment: as above
[3] = biological target: T4, PfCSP C‐terminal domain (C‐CSP), NF54 (Plasmodium falciparum NF54, UniProt P19597); experiment: as above
T4 construct: Plasmodium falciparum NF54 circumsporozoite protein, C-terminal domain made of the C-linker (aa 273–310) and the α-TSR domain (aa 311–384); also called C‐CSP peptide; PfCSP C terminus; source: E. coli, by the EMBL protein expression and purification core facility

[4] = biological target: T2, PfCSP C‐linker peptide (aa 273–310); experiment: as above
[5] = biological target: T1, PfCSP C‐terminal linker peptide P2 …; experiment: crystal structure; 3764 Fab and PfCSP 281-294 peptide mixed 1:3; 19% isopropanol, 19% PEG 4000, 5% glycerol, 0.095 M sodium citrate pH 5.6; 2.36 Å

Binder	binding result [1]	binding result [2]	binding result [3]	binding result [4]	binding result [5]
B1	binds	binds	binds	binds	–
B2	–	–	–	–	binds

— paper PMC10245032 (EMBO Molecular Medicine, 2023)
